Experimental data published in paper PMC11549101, “Structural insights into human zinc transporter ZnT1 mediated Zn^2+ efflux” (EMBO Reports, 2024).

Experiments:
[1] = target: the molecule itself; test: cryo-EM structure; single-particle cryo-EM of purified hZnT1 in LMNG/CHS micelles, 50 mM HEPES-Na pH 7.5, 150 mM NaCl, no Zn2+ supplement, no EDTA treatment; 3.48 Å map, C1
[2] = target: the molecule itself; test: cryo-EM structure; single-particle cryo-EM of purified hZnT3(50-388) in LMNG/CHS micelles, 50 mM MES pH 6.0, 150 mM NaCl, 1 mM ZnSO4; 3.14 Å map

B1: human zinc transporter 1 (ZnT1), full-length wild type (natural protein, UniProt Q9Y6M5 1-507, looked up)
chain: MGCWGRNRGRLLCMLALTFMFMVLEVVVSRVTSSLAMLSDSFHMLSDVLALVVALVAERFARRTHATQKNTFGWIRAEVMGALVNAIFLTGLCFAILLEAIERFIEPHEMQQPLVVLGVGVAGLLVNVLGLCLFHHHSGFSQDSGHGHSHGGHGHGHGLPKGPRVKSTRPGSSDINVAPGEQGPDQEETNTLVANTSNSNGLKLDPADPENPRSGDTVEVQVNGNLVREPDHMELEEDRAGQLNMRGVFLHVLGDALGSVIVVVNALVFYFSWKGCSEGDFCVNPCFPDPCKAFVEIINSTHASVYEAGPCWVLYLDPTLCVVMVCILLYTTYPLLKESALILLQTVPKQIDIRNLIKELRNVEGVEEVHELHVWQLAGSRIIATAHIKCEDPTSYMEVAKTIKDVFHNHGIHATTIQPEFASVGSKSSVVPCELACRTQCALKQCCGTLPQAPSGKDAEKTPAVSISCLELSNNLEKKPRRTKAENIPAVVIEIKNMPNKQPESSL
notes: Zinc transporter 1 (ZnT1/SLC30A1), human, full-length wild type, codon-optimised synthetic cDNA; residues 138-240 and 448-507 not modelled in the map; also called hZnT1; SLC30A1; source: HEK293F cells, transfected; not shown: FLAG, C-terminal, cleaved; mCherry, C-terminal, cleaved
stoichiometry N [1]: 2

B2: human zinc transporter 3 (ZnT3) lacking the N-terminal 49 residues, ZnT3(50-388) (domain or fragment, UniProt Q99726 50-388, looked up)
chain: MPFHHCHRDPLPPPGLTPERLHARRQLYAACAVCFVFMAGEVVGGYLAHSLAIMTDAAHLLADVGSMMGSLFSLWLSTRPATRTMTFGWHRSETLGALASVVSLWMVTGILLYLAFVRLLHSDYHIEGGAMLLTASIAVCANLLMAFVLHQAGPPHSHGSRGAEYAPLEEGPEEPLPLGNTSVRAAFVHVLGDLLQSFGVLAASILIYFKPQYKAADPISTFLFSICALGSTAPTLRDVLRILMEGTPRNVGFEPVRDTLLSVPGVRATHELHLWALTLTYHVASAHLAIDSTADPEAVLAEASSRLYSRFGFSSCTLQVEQYQPEMAQCLRCQEPPQA
notes: Zinc transporter 3 (ZnT3/SLC30A3), human, residues 50-388 (lacking the N-terminal 49 residues); No protease step is described for ZnT3, so the tags were probably still on the chain; also called hZnT3; SLC30A3; source: HEK293F cells, transfected
stoichiometry N [2]: 2
